Here are results for 2 molecules from publication PMC3206593 (Bioorganic & medicinal chemistry, 2011).

One test deals with T1, Aurora A (Homo sapiens, UniProt O14965).
T1 sequence (O14965 1-403): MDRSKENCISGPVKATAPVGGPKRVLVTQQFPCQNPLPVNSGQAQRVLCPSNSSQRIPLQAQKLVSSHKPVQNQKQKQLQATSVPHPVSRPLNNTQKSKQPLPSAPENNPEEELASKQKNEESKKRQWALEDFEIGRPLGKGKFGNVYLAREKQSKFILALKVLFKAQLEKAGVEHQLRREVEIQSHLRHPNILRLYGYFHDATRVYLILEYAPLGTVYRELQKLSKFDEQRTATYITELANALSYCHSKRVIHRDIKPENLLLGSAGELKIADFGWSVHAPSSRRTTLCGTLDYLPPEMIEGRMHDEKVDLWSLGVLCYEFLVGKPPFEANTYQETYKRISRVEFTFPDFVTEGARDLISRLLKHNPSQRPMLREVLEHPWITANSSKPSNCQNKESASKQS
As to conditions: at a concentration of 100 μM; peptide appended to the helices; cited from earlier work.

Test [1] concerns the target T2, (CTRPWWLC)G cyclic peptide (disulfide 1-8 (inferred)).
T2 chain: CTRPWWLCG-NH2
Briefly: radiometric kinase kinetic assay.

Positions of bridges follow the written chain, without caps; N, C: chain ends. No end group written: not given here.

On to GRRVVVSFAWD, for which, in the test with Aurora A, the “inhibition of Aurora A” value is 35%.

B1: Aurora kinase A (protein)
chain: T1 sequence (O14965 1-403)
As usually defined, the Ki is the dissociation constant of the complex between target and ligand, obtained from inhibition or displacement. Lower therefore signals a stronger hold on the target. On to B1, for which, in test [1], the Ki came out at 31 µM.
